We go through five molecules from US20210238276A1 (INTEGRAL MOLECULAR, published 2021).

Where a chain is given by its changes, count along the chain named.

For one experiment, the target named is T1, hsGLUT4 G356A (human, UniProt P14672 1-509).
T1 sequence: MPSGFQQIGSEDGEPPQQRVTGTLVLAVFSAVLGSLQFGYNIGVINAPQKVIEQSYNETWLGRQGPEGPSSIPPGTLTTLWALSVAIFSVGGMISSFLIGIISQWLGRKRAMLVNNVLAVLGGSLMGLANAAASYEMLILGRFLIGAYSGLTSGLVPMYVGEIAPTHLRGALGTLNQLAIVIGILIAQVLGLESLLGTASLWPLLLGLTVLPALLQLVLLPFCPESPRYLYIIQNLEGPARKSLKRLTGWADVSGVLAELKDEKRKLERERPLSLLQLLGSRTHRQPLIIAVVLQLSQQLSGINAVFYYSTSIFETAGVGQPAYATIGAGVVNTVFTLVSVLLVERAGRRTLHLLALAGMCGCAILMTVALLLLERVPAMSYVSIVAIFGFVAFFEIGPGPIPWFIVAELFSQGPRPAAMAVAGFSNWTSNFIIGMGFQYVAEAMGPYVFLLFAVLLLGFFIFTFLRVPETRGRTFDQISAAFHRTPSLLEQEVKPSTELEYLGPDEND
As to the kind of experiment: flow cytometry, alanine-scan library in HEK-293T. How it is done:
(§1) Because of the state-dependence of the isolated MAbs, we next wished to understand the mechanism by which each MAb could recognize GLUT4 in its different conformations. The residues required for binding of each MAb were determined using shotgun mutagenesis comprehensive alanine scanning (Davidson E & Doranz B J (2014) A High-Throughput Shotgun Mutagenesis Approach to Mapping B-cell Antibody Epitopes. Immunology, which is hereby incorporated by reference in its entirety). All residues of hsGLUT4 were individually mutated to alanine, with existing alanines changed to serines. Mutations were obtained for 508 of the 509 residues of GLUT4 (excluding the initiating methionine). The entire mutation library was transfected into human HEK-293T cells in a 384-well array format (one clone per well) and assessed for immunoreactivity using high-throughput flow cytometry.
(§2) HEK-293T cells were transfected by CaPO₄ with plasmids in 6-well culture plates (Falcon) at 750,000 cells/well. At 48 hours post transfection, cells were stained with anti-V5 and anti-GLUT4 MAbs (purified scFv, 2 μg/ml) followed by biotinylated goat anti-mouse or human antibody (1:500) and streptavidin-PerCP (1:500). Fluorescence was detected using an Intellicyt high-throughput flow cytometer (HTFC; Intellicyt, Albuquerque, N. Mex.). For cell permeabilization, cells were treated with saponin at 0.1% in PBS for 20 minutes. To discriminate intact (live) and permeabilized (dead) cells without the use of detergent, propidium iodide (PI) was added to HEK-293T cells at 1 ug/ml just prior to flow cytometry. Where indicated, cytochalasin B (Sigma) was used at a final concentration of 10 uM and phloretin (Sigma) was used at a final concentration of 100 uM, each added in 10% NGS for 30 minutes prior to antibody staining as well as included with the primary antibody.

Another experiment deals with T2, hsGLUT4 G446A (human, UniProt P14672 1-509).
T2 sequence: T1 sequence with A356G, G446A
As to the kind of experiment: flow cytometry, alanine-scan library in HEK-293T. The procedure: as §1, §2
(In flow cytometry, cells or beads pass a laser one at a time.)

The target in another experiment is T3, human GLUT2 (hsGLUT2) (human, UniProt P11168 1-524).
T3 construct: whole, on cells
T3 sequence (looked up): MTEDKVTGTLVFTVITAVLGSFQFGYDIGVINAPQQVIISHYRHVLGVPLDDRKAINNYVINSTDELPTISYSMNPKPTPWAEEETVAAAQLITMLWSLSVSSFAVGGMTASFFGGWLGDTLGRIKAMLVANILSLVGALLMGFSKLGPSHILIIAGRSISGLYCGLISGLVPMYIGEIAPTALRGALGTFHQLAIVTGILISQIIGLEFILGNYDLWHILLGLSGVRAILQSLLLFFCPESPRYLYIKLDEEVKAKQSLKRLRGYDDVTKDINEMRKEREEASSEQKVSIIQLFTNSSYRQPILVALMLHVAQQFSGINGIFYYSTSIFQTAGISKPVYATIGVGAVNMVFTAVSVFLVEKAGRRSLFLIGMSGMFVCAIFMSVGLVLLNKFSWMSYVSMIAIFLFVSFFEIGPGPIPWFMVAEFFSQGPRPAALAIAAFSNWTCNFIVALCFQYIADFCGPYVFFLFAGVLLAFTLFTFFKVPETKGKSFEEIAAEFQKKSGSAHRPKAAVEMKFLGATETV
In words: flow cytometry, transfected HEK-293T. The procedure:
as §2

Another experiment concerns the target T4, human GLUT3 (hsGLUT3) (human, UniProt P11169 1-496).
T4 construct: whole, on cells
T4 sequence (looked up): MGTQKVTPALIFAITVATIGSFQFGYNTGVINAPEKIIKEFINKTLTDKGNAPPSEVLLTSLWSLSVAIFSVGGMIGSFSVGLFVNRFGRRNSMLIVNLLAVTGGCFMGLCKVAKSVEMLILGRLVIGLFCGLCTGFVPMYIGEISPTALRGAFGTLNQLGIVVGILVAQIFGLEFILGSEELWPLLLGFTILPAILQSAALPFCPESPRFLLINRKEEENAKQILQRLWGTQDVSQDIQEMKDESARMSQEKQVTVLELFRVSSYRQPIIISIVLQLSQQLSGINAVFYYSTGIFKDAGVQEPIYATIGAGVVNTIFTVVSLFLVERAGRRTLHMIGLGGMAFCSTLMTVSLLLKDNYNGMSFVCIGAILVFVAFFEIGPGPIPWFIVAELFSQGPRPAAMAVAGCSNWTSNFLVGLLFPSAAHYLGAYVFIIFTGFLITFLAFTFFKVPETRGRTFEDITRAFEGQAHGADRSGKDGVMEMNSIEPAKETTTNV
As to the kind of experiment: flow cytometry, transfected HEK-293T. The procedure: as §2

Take 1F8 (antibody): the results for the % of binding to wild type GLUT4 with hsGLUT4 G356A and in the experiment with hsGLUT4 G446A were 90% and 108%, respectively.

B1: AB108 (Fc fusion)
scFv: ALTQPSSVSANLGGTVKITCSGSSGSYGWYQQKAPGSAPVTLIYRNDKRPSDIPSRFSGSESGSTGTLTITGVQAEDEAVYFCGGYDSSAGYAAFGAGTTLTVLGQSSRSSGGGGSSGGGGSAVTLDESGGGLQTPGGALSLVCKASGFTFSSHGMGWVRQAPGKGLEWVGSISTGRYTFYAPAVKGRATISRDNGQSTLRLQLNNLRAEDTGTYYCTKCAGLNGCGGGEIDAWGHGTEVIVSS
notes: Bivalent scFv-Fc; also called MAb AB108; not shown: Fc fragment of human IgG1, cloned in frame with the scFv
As to B1, the binding result with human GLUT2 (hsGLUT2) and with human GLUT3 (hsGLUT3) was “no binding (tested: 2 µg/ml)” each time. Moreover, the “% of binding to wild type GLUT4” value with hsGLUT4 G356A amounted to 19%; with hsGLUT4 G446A, 86%.

B2: AB105 (Fc fusion)
scFv: ALTQPSSVSANPGETVEITCSGDSSYYGWYQQKSPGSAPVTVIYANTNRPSDIPSRFSGSASGSTATLTITGVQAEDEAVYYCGSADSTYAGIFGAGTTLTVLGQSSRSSGGGGSSGGGGSAVTLDESGGGLQTPGGALSLICKASGFTFSSYTMNWVRQAPGKGLEWVGVISNSGRTTNYGAAVQGRATISRDNGQSTVRLQLNNLRAEDTGTYYCAKSSASASCAWWAGRSYPCSANRIDAWGHGTEVIVSS
notes: Bivalent scFv-Fc; also called MAb AB105; not shown: Fc fragment of human IgG1, cloned in frame with the scFv
Take B2: the binding result with human GLUT2 (hsGLUT2) and with human GLUT3 (hsGLUT3) was “no binding (tested: 2 µg/ml)” throughout.

B3: AB111 (Fc fusion)
scFv: ALTQPSSVSANPGETVKITCSGSGSWYGWFQQKSPGSAPVTVIYSNDKRPSDIPSRFSGSKSGSTSTLTITGVQVEDEAVYYCGNWDIFGAGTTLTVLGQSSRSSGGGGSSGGGGSAVTLDESGGGLQTPGGALSLVCKASGFTFSSHGMGWVRQAPGKGLEWVASISTGRYTFYAPAVKGRATISRDNGQSTVRLQLNNLRAEDTATYYCTKCAGLNGCGGGEIDAWGHGTEVIVSS
notes: Bivalent scFv-Fc; also called MAb AB111; not shown: Fc fragment of human IgG1, cloned in frame with the scFv
Take B3: the binding result with human GLUT2 (hsGLUT2) and with human GLUT3 (hsGLUT3) was “no binding (tested: 2 µg/ml)” in each case. For the same molecule, the results for the “% of binding to wild type GLUT4” value in the experiment with hsGLUT4 G356A and in the experiment with hsGLUT4 G446A were 137% and 71%, respectively.

B4: AB101 (scFv)
scFv: ALTQPSSVSANPGETVKITCSGSSNSYGWYQQKSPGSAPVTVIYYNDKRPSDIPSRFSGSKSDSTHTLTITGVRAEDEAVYFCGSYDSTYVGIFGAGTTLTVLGQSSRSSGGGGSSGGGGSAVTLDESGGGLQTPGGTLSLVCKASGFTFSSNAMGWVRQAPGKGLEWVAGISSDGRYTKYGSAVKGRATISRDNGQSTVRLQLNNLRAEDTGTYFCAKAFGNNYRRIYAGQIDAWGHGTEVIVSS
notes: Chicken-derived clone used as a control; the four lead clones were tested as scFv-human IgG1 Fc; also called MAb AB101
In the case of B4, the entries for the “% of binding to wild type GLUT4” value in the experiment with hsGLUT4 G356A and with hsGLUT4 G446A were 46% and 95%, respectively.
